Measured values reported in the RNAGym collection of RNA variant scans (doi:10.1073/pnas.2313332121).
Fewer inactive variants are shown than the library holds.

B1: TPR 5TU (parent)
chain: GGAUCUUCUCGAUCUAACAAAAAAGACAAAUCUGCCACAAAGCUUGAGAGCAUCUUCGGAUGCAGAGGCGGCAGCCUUCGGUGGCGCGAUAGCGCCAACGUUCUCAACUAUGACACGCAAAACGCGUGCUCCGUUGAAUGGAGUUUAUCAUG

Variants of: B1
Experiment: polymerase ribozyme fitness, log enrichment relative to wild type (log ratio); higher = more active; in vitro selection for triplet polymerase activity
Procedure, shortened: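 After PCR construction and transcription, each subunit's mutant library from a heterodimeric triplet polymerase ribozyme was annealed with a biotinylated primer, the partner subunit and triplets. Incubation was frozen, at −7 °C, and extended constructs were gel-excised, bound to streptavidin beads and amplified by RT-PCR, in one selection round done in triplicate. Fitness is the logarithm of a genotype's enrichment divided by that of the wild type, from inverse-variance-weighted replicate averages of Illumina-sequenced inputs and outputs. The base of the logarithm is 2, and genotypes needed ≥10 input reads and ≥1 read per output.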

| Variant | polymerase ribozyme fitness (log ratio) |
| --- | --- |
| A30C G62U U90G C95A G124A A138C U151C | ≤ -4.2 |
| A30G G46A A107U | -4.03 |
| U31A C85A | -0.724 |
| A30U A52G G58A G70U C79U G83A C93U | ≤ -4.2 |
| U31A C54U G83U G94U G124A A142C | -4.09 |
| A30U A91U | ≤ -4.2 |
| A30U C54U A73G C95A C116U | -4.03 |
| A30U U55A G59A G70A C96G A97G | ≤ -4.2 |
| A30G C38U A73U U78G C87G C105G | ≤ -4.2 |
| U31A C95G U130A | -3.43 |
| A30U A66G G68A C76U G141U A142U | ≤ -4.2 |
| A30U G42A U55G C69A G126U A142C | ≤ -4.2 |
| A29U U55A A60G G86A U130C | ≤ -4.2 |
| A30U U44G A52C C85G A107G G126C U134A A147G | ≤ -4.2 |
| U31A A39G G67C C72G C96U A107U A113G A115C U148A | ≤ -4.2 |
| A30C G84A A115C C149U | ≤ -4.2 |
| U31A C93A A115C | -1.71 |
| A30U C54G C95A A98U A122C G141C U144C | ≤ -4.2 |
| A30C A142C U144C | ≤ -4.2 |
| A30G A64G G136C | -4.07 |
| A30U C54A C76A C87G G92A G143C | ≤ -4.2 |
| A30U G68U A73U G140U | ≤ -4.2 |
| A30U U82A C85A U104A | ≤ -4.2 |
| A30G G46U G68U A147C | ≤ -4.2 |

| Variant | polymerase ribozyme fitness (log ratio) |
| --- | --- |
| A29U C96U | -3.19 |
| U31A A40U C85G A106G G140A C149A | ≤ -4.2 |
| A29U A66U C79A G83A C96A A142U | ≤ -4.2 |
| A30G G42A | ≤ -4.2 |
| A30U C57A A73G G81C G92U G141A U148A | ≤ -4.2 |
| U31A C54A G84A C96U C132U | -3.31 |
| A30C C43U A49C C85G C108G | ≤ -4.2 |
| A29G G58C A73U G92C A98G C125A | ≤ -4.2 |
| A29U C32U A122G | ≤ -4.2 |
| A30G G80A | -3.66 |
| A30U C43G | ≤ -4.2 |
| A29G G86U G143A | ≤ -4.2 |
| A30G G42U A52C C57A C96A A120G | ≤ -4.2 |
| A29U G86A A97G A142U G143A | ≤ -4.2 |
| A30C G92C G126A | ≤ -4.2 |
| A29U G50A G58C A60C G88A C116G U139A G141C G143C | -3.79 |
| A29U A41U A47C C114G C132U | ≤ -4.2 |
| A29U U31G A47C U61A G81A C95U G100U | ≤ -4.2 |
| A30U A52U U78A | ≤ -4.2 |
| U31A C125A | 0.0765 |
| A30U A37C G50C A91G A150G | ≤ -4.2 |
| A30U C95G | -3.94 |
| A30U C95U | -3.31 |
| A29U C96U A106C U127G | ≤ -4.2 |

| Variant | polymerase ribozyme fitness (log ratio) |
| --- | --- |
| A30G C108U U109A | ≤ -4.2 |
| U31A A91C C116A | -3.88 |
| A29U A107C | ≤ -4.2 |
| A29U C36U | ≤ -4.2 |
| A29U C87U A122U U145C | -3.85 |
| A29U A137G | ≤ -4.2 |
| A29G G94U A97G C149U | ≤ -4.2 |
| A30U C79U G83C | ≤ -4.2 |
| A30U A52C U90C C93U C95U C96U A106G | ≤ -4.2 |
| A29U C36U G62A U109G | ≤ -4.2 |
| A29G G58C A60C G71A C129G | ≤ -4.2 |
| A30C C76A G83C | ≤ -4.2 |
| A30C A41G C76U G83A A89U G124A C131U C132G G143A U144A C149A | ≤ -4.2 |
| U31A C57U C87U A89G G117A | -3.86 |
| A30U U45A G50C C79G G83C G126C | ≤ -4.2 |
| A30G C51U G68C A121G U127C | ≤ -4.2 |
| A30U C54U C85U | -3.87 |
| A30C A47G G70U U102G G126U G152U | ≤ -4.2 |
| U31A A47C U56A C87U | -0.397 |
| U31A C51U A73G C95G | -3.09 |
| A30C C38A C54U A60G G84U G141A G143A | ≤ -4.2 |
| A30C G67C G68A G88A C93A U135C G141C | ≤ -4.2 |
| A30G A91U A137G G141U | ≤ -4.2 |
| A29U C69A G84A G141A | ≤ -4.2 |

| Variant | polymerase ribozyme fitness (log ratio) |
| --- | --- |
| A30C C79A G88A A107G C116G A137G U144C | ≤ -4.2 |
| A30U A73U G74U C76G U90G U139C | ≤ -4.2 |
| A29G G70A A120U G143A A150C | ≤ -4.2 |
| U31A A89C | -0.512 |
| A29U G50A C116U C129G | ≤ -4.2 |
| U31A A52C G58C G83A | -4.11 |
| A29U U77A G80A G92A U148C | ≤ -4.2 |
| A30U G70A G143C | ≤ -4.2 |
| A30G C87U U101A U109C A115U A120U A122U U145G G152A | ≤ -4.2 |
| A29U G133C | ≤ -4.2 |
| A30U A49G A52G G58C U78A A110U C123U A142C | ≤ -4.2 |
| A29U G94U U109A | ≤ -4.2 |
| A29U G70U G71A C87U U90A A106U | ≤ -4.2 |
| A29U A52U U53A G80A C87A G128U U146C | ≤ -4.2 |
| A30G A40G C54A C85U G117C | ≤ -4.2 |
| U31A A39U C93G C95U C99U A107G A113U C132U U135C A138G | ≤ -4.2 |
| A29U G92A A142C | ≤ -4.2 |
| A29U G86A C87U C105A C116A U146A | ≤ -4.2 |
| A30U A52G U53A U146G | ≤ -4.2 |
| A30U A52C G67A G68A C87U A91G C95G U127C G143U U148G | ≤ -4.2 |
| A29U C76G G84U C96A A122U U144A | ≤ -4.2 |
| A29U G68A G83A C103G | ≤ -4.2 |
| A29U G59C G88U C95G | ≤ -4.2 |
| A30G G48A C54U C85U | ≤ -4.2 |

| Variant | polymerase ribozyme fitness (log ratio) |
| --- | --- |
| A29G U78G G84C | ≤ -4.2 |
| A30C A52C C85U C99A A115U C131U G141C | ≤ -4.2 |
| A30U G50A C57A C75U C85A G140U G143A | ≤ -4.2 |
| A30C C57U G59C U82A G117A A138C | ≤ -4.2 |
| A30G U77C G84C G86U U102A C118U | ≤ -4.2 |
| A29U G94U C149G | ≤ -4.2 |
| A29U G59A G83C C125U | ≤ -4.2 |
| A29U U55G C57U G67C A98G | ≤ -4.2 |
| A30C C79G C85U A106U | ≤ -4.2 |
| A29U U53A U56A A64U U77C A98G C103G U148C | ≤ -4.2 |
| A30U U77A G84U A91C G94C C99G G141C | ≤ -4.2 |
| A30U G94U | ≤ -4.2 |
| A30U G94A | -3.7 |
| A30U C43U G70U C87G | ≤ -4.2 |
| A29U U33C A52C G86A | ≤ -4.2 |
| A30G G86C A147C | ≤ -4.2 |
| A29U A41U U53G G88U A89G G117A | ≤ -4.2 |
| A30U A41C G70C C93G | ≤ -4.2 |
| A29U U44C U45A C57A A64G C76A C95A A150C | ≤ -4.2 |
| A30U U56G G84A C96U A113C C125U U134A A142U | ≤ -4.2 |
| A29G U45C A52C U53G U134C G136U | ≤ -4.2 |
| A29U G59C G62U C95U C116A | ≤ -4.2 |
| U31A C32A G59A C93G A113U A150C | ≤ -4.2 |
| A29U G48U U61G G83C | ≤ -4.2 |

| Variant | polymerase ribozyme fitness (log ratio) |
| --- | --- |
| A30U G50C C96U U104C G136U | ≤ -4.2 |
| A30U C38G G50C C87G G117A | ≤ -4.2 |
| A30G C95U | -3.14 |
| A29U G46A U61A U78G C87G A89C G124U U148G | ≤ -4.2 |
| U31A A73U C95G | -3.66 |
| A30U G62U U90G C95A A107C C118A A142G | ≤ -4.2 |
| A30C C93A A97G | ≤ -4.2 |
| A30U U45G C93U C103G C118G | ≤ -4.2 |
| A30G G48U G86U C149U | ≤ -4.2 |
| A29U A97U A115U G124C U134C U148A | ≤ -4.2 |
| A30G U45A U78C G80C A89C G94U | ≤ -4.2 |
| U31A C36A A52G C76A C95U G124A G140U U145G | ≤ -4.2 |
| A30U U55A | -2.96 |
| A30C U53A G84A | ≤ -4.2 |
| A30U C38A C75G C85U G141C | ≤ -4.2 |
| A29U C51G G58C G71A A91G C95A C103G U151A G152A | ≤ -4.2 |
| U31A A49G U55A G59U C96G | -1.89 |
| A29G U33C G141A U145A | ≤ -4.2 |
| U31A C57A C87U A97C G117A A119U | 1.02 |
| A30C A37C A49C A52C C57G G83A A115U G143C | ≤ -4.2 |
| A29U G65A C87A A91C U109G | ≤ -4.2 |
| A30C C85U | -4.09 |
| A30U U55G C57A C93U | -4.13 |
| A29U A52C | ≤ -4.2 |

| Variant | polymerase ribozyme fitness (log ratio) |
| --- | --- |
| A29U A30C A49G C57U C87A G100A G141A | ≤ -4.2 |
| A30U A60C G62A C76A C96G U127G G143C | ≤ -4.2 |
| U31A G46C C95U | -1.57 |
| A30G A121U | -3.39 |
| A30G A121G | -3.36 |
| A30G G50C C51A G84A C87G G100U A121G | ≤ -4.2 |
| A29U A39G C57G A66C C85G A91U | ≤ -4.2 |
| A30U U44A C85A A110C U111C | ≤ -4.2 |
| A30U U55A G74A C79U C87A C116A | ≤ -4.2 |
| A30G C57U C63U G68C C95U A120C C125G | ≤ -4.2 |
| A30G U33A U55A A91C C132U A142U | ≤ -4.2 |
| A29U G46U G59A G70A A89U G117U U148A | ≤ -4.2 |
| A30G C93A | -3.95 |
| A30U C38U | -3.76 |
| U31A C32G A41U G67U G80C G86C A147U | ≤ -4.2 |
| A30U C54U C85A G128C G140U G141A | ≤ -4.2 |
| A30G C76U | -3.9 |
| A30C A64U G65A G70A G84U A91C C103U G136C C149G | ≤ -4.2 |
| A29G U90G A122U A142U C149G | ≤ -4.2 |
| A30G G74U C95A U148G | ≤ -4.2 |
| A30C C35U C54U C85U A121U | ≤ -4.2 |
| A30U A91U U104G | ≤ -4.2 |
| A29G G84U G117A | ≤ -4.2 |
